The assay addresses pyrene-labeled actin (rabbit skeletal muscle F-actin) (rabbit) (UniProt P68135). The assay can be described thus: other fluorescence titration.

As for “single-headed S1 fragment of bovine ventricular cardiac myosin (from UniProt Q9BE39 1-1935; P85100 1-199) (complex)”, the relative pyrene-actin fluorescence after addition of 2.0 mM MgATP is 0.95 and the stoichiometry N (myosin heads per actin) was found to be 1.

The record behind these values is publication doi:10.1101/287425.
